Results reported in patent US20160303245A1 (UNIVERSITY OF COPENHAGEN, published 2016).
*1 amine or outer side, *2 acyl side, *3 side chain or, on linkers, in order; H or OH if unused. Where no end group is shown, it is not given here. The star is where a group is joined. γGlu = O=C(O)[C@H](CCC(=O)[*:2])N[*:1]; Stearoyl = CCCCCCCCCCCCCCCCCC(=O)*; Lauroyl = CCCCCCCCCCCC(=O)*; NPEG4 = not defined here; Ava = NCCCCC(=O)O; GABA = NCCCC(=O)O

B1: FA-linked dimeric ligand 12 (peptide)
peptide: {C17:0‑COOH acyl-Ava-NPEG4}-IETAV
modifications: not fully specified; reading uncertain; also: dimer: two chains joined at N-termini through NPEG4, linker taken from rows above (blank cell)
notes: Synthetic dimer NPEG4(IETAV)2 with fatty acid on the linker nitrogen; also called compound 12
B2: FA-linked dimeric ligand 7 (peptide)
peptide: {Stearoyl-γGlu-NPEG4}-IETAV
modifications: not fully specified; reading uncertain; also: dimer: two chains joined at N-termini through NPEG4
notes: Synthetic dimer NPEG4(IETAV)2 with fatty acid on the linker nitrogen; also called compound 7
B3: FA-linked dimeric ligand 3 (peptide)
peptide: {Stearoyl-GABA-NPEG4}-IETAV
modifications: not fully specified; reading uncertain; also: dimer: two chains joined at N-termini through NPEG4
notes: Synthetic dimer NPEG4(IETAV)2 with fatty acid on the linker nitrogen; also called compound 3
B4: FA-linked dimeric ligand 8 (peptide)
peptide: {C17:0‑COOH acyl-γGlu-NPEG4}-IETAV
modifications: not fully specified; reading uncertain; also: dimer: two chains joined at N-termini through NPEG4, linker taken from rows above (blank cell)
notes: Synthetic dimer NPEG4(IETAV)2 with fatty acid on the linker nitrogen; also called compound 8
B5: FA-linked dimeric ligand 11 (peptide)
peptide: {Stearoyl-Ava-NPEG4}-IETAV
modifications: not fully specified; reading uncertain; also: dimer: two chains joined at N-termini through NPEG4, linker taken from rows above (blank cell)
notes: Synthetic dimer NPEG4(IETAV)2 with fatty acid on the linker nitrogen; also called compound 11
B6: FA-linked dimeric ligand 4 (peptide)
peptide: {C17:0‑COOH acyl-GABA-NPEG4}-IETAV
modifications: not fully specified; reading uncertain; also: dimer: two chains joined at N-termini through NPEG4
notes: Synthetic dimer NPEG4(IETAV)2 with fatty acid on the linker nitrogen; also called compound 4
B7: FA-linked dimeric ligand 10 (peptide)
peptide: {C11:0‑COOH acyl-Ava-NPEG4}-IETAV
modifications: not fully specified; reading uncertain; also: dimer: two chains joined at N-termini through NPEG4, linker taken from row above (blank cell)
notes: Synthetic dimer NPEG4(IETAV)2 with fatty acid on the linker nitrogen; also called compound 10
B8: FA-linked dimeric ligand 6 (peptide)
peptide: {C11:0‑COOH acyl-γGlu-NPEG4}-IETAV
modifications: not fully specified; reading uncertain; also: dimer: two chains joined at N-termini through NPEG4, linker taken from row above (blank cell)
notes: Synthetic dimer NPEG4(IETAV)2 with fatty acid on the linker nitrogen; also called compound 6
B9: FA-linked dimeric ligand 5 (peptide)
peptide: {Lauroyl-γGlu-NPEG4}-IETAV
modifications: not fully specified; reading uncertain; also: dimer: two chains joined at N-termini through NPEG4
notes: Synthetic dimer NPEG4(IETAV)2 with fatty acid on the linker nitrogen; also called compound 5
B10: FA-linked dimeric ligand 1 (peptide)
peptide: {Lauroyl-GABA-NPEG4}-IETAV
modifications: not fully specified; reading uncertain; also: dimer: two chains joined at N-termini through NPEG4
notes: Synthetic dimer NPEG4(IETAV)2 with fatty acid on the linker nitrogen; also called compound 1
B11: FA-linked dimeric ligand 9 (peptide)
peptide: IETAV
modifications: not fully specified; also: dimer: N-termini of two peptides joined through NPEG4 linker
notes: Synthetic dimer NPEG4(IETAV)2 with fatty acid on the linker nitrogen; also called compound 9
B12: FA-linked dimeric ligand 2 (peptide)
peptide: {C11:0‑COOH acyl-GABA-NPEG4}-IETAV
modifications: not fully specified; reading uncertain; also: dimer: two chains joined at N-termini through NPEG4, linker taken from row above (blank cell)
notes: Synthetic dimer NPEG4(IETAV)2 with fatty acid on the linker nitrogen; also called compound 2
B13: FA-linked dimeric ligand 13 (peptide)
peptide: {Stearoyl-GABA-NPEG4}-IETDV
modifications: not fully specified; reading uncertain; also: dimer: two chains joined at N-termini through NPEG4
notes: IETDV analogue of compound 3, synthesized analogously to 1-12; also called compound 13

Each binder was assayed against T1, PSD-95 PDZ1-2 (UniProt P78352 61-249, limits assumed) (assay: FP competition, TBS + 1% HSA).
T1 construct: domain: PDZ1-2; also called PDZ1-2 of PSD-95
T1 sequence (P78352 61-249 limits assumed): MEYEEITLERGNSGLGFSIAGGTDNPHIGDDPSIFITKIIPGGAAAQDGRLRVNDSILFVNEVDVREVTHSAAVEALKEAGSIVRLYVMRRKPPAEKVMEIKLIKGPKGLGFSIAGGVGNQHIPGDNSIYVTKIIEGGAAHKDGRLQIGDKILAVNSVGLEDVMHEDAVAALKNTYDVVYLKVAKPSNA
Method: (§1) The FP values were fitted to a one site competition (variable slope) model in GraphPad Prism. […] The modified FP assay was conducted as described above with 1% HSA in the assay.
The synthesized FA-linked dimeric ligands were evaluated for their affinity to PSD-95 PDZ1-2 in the FP assay.

B1 and B2 cannot be ordered by “fold lower apparent affinity than the dimeric ligands linked to the shorter FAs (C12:0 or C11:0-COOH)” value: greater than 50 fold for the first, greater than 50 fold for the second.

B3 and B4 cannot be ordered by “fold lower apparent affinity than the dimeric ligands linked to the shorter FAs (C12:0 or C11:0-COOH)” value: greater than 50 fold for the first, greater than 50 fold for the second.

B5 and B6 cannot be ordered by “fold lower apparent affinity than the dimeric ligands linked to the shorter FAs (C12:0 or C11:0-COOH)” value: greater than 50 fold for the first, greater than 50 fold for the second.

Point of comparison: B3, “fold affinity loss in TBS+HSA” value 50 fold. Against it:
- B2 — the same, 50 fold
- B5 — the same, 50 fold

These binders were tested against T2, Human Serum Albumin (human, UniProt P02768 25-609) (assay: calculated from KD at 588 µM HSA (equation 2)).
T2 construct: Bought reagent; also called HSA
Method: (§2) The assay kit consisted of prefilled wells with increasing concentrations of immobilized HSA as well as two control wells without HSA. The HSA had been immobilized in a random fashion to ensure that all binding sites on HSA were available. To conduct the assay, the wells were incubated with a known concentration of the tested compounds, and the unbound amount of compound was quantified using analytical RP-HPLC (C8 column). The fraction of unbound drug (fᵤ) for each data point was calculated from the RP-HPLC data by comparison to a control sample without HSA.

Point of comparison: B8, “fb (%), fraction bound to HSA” value 90.1%. Against it:
- IETAV (also: dimer: two peptides joined by a linker, no fatty acid, also called dimeric ligand UCCB01-125) [UCCB01-125] — lower, 77.6%
- B7 — lower, 71%
- B1 — higher, 96.2%
- B2 — higher, 98.9%
- B3 — higher, 99.2%
- B9 — higher, 95.8%
- B4 — higher, 94.5%
- B10 — higher, 95.7%
- B5 — higher, 97.9%
- B6 — higher, 96.5%
- B11 — higher, 91.4%
- B12 — higher, 92.3%

The binders below were run against T1, PSD-95 PDZ1-2 (assay: FP competition vs dimeric fluorescent probe, TBS).

Point of comparison: B11, Ki 20.5 nM. Against it:
- IETAV (also: dimer: two peptides joined by a linker, no fatty acid, also called dimeric ligand UCCB01-125) [UCCB01-125] — within 1.5-fold, 14.3 nM
- B7 — within 1.5-fold, 13.9 nM
- B8 — 1.6-fold higher, 33.7 nM
- B1 — 1.8-fold lower, 11.5 nM
- B2 — within 1.5-fold, 17 nM
- B3 — 1.8-fold lower, 11.1 nM
- B9 — within 1.5-fold, 30.2 nM
- B4 — 2.2-fold lower, 9.2 nM
- B10 — 1.5-fold lower, 13.6 nM
- B5 — within 1.5-fold, 26.5 nM
- B6 — 1.8-fold lower, 11.4 nM
- B12 — within 1.5-fold, 15.4 nM

Target: T1, PSD-95 PDZ1-2
Experiment: FP competition vs dimeric fluorescent probe, TBS
Remark: another data set of the same source

Point of comparison: B3, Ki 11.1 nM. Against it:
- B2 — 1.5-fold higher, 17 nM
- B6 — within 1.5-fold, 11.4 nM

The binders below were run against T2, Human Serum Albumin (assay: calculated from KD(HSA) at 150 µM HSA (equation 2)).

Point of comparison: B3, “fu (%), fraction unbound” value 3.1%. Against it:
- IETAV (also: dimer: two peptides joined by a linker, no fatty acid, also called dimeric ligand UCCB01-125) [UCCB01-125] — higher, 50.7%
- B7 — higher, 61.5%
- B8 — higher, 30.1%
- B1 — higher, 8.3%
- B2 — higher, 4.3%
- B9 — higher, 14.7%
- B4 — higher, 18.6%
- B10 — higher, 15.1%
- B5 — higher, 7.8%
- B6 — higher, 11.5%
- B11 — higher, 27.1%
- B12 — higher, 24.7%

Target: T2, Human Serum Albumin
Experiment: calculated from KD(HSA) at 150 µM HSA (equation 2)
Remark: another data set of the same source

Point of comparison: B2, “fu (%), fraction unbound” value 4.3%. Against it:
- B3 — lower, 3.1%
- B13 — higher, 35.6%
- B6 — higher, 11.5%

Each binder was assayed against T1, PSD-95 PDZ1-2 (assay: FP competition, TBS + 1% HSA, corrected for fu (free ligand)).

Point of comparison: B10, Ki 3.2 nM. Against it:
- IETAV (also: dimer: two peptides joined by a linker, no fatty acid, also called dimeric ligand UCCB01-125) [UCCB01-125] — within 1.5-fold, 4.1 nM
- B7 — 3.4-fold higher, 10.9 nM
- B8 — 2.2-fold higher, 7 nM
- B1 — 78-fold higher, 250 nM
- B2 — 18-fold higher, 59.1 nM
- B3 — 18-fold higher, 57.2 nM
- B9 — within 1.5-fold, 2.4 nM
- B4 — 210-fold higher, 669 nM
- B5 — 5.2-fold higher, 16.8 nM
- B6 — 200-fold higher, 654 nM
- B11 — within 1.5-fold, 2.6 nM
- B12 — 1.7-fold higher, 5.5 nM

Target: T1, PSD-95 PDZ1-2
Experiment: as above
Remark: another data set of the same source

Point of comparison: B2, Ki 59.1 nM. Against it:
- B3 — within 1.5-fold, 57.2 nM
- B6 — 11-fold higher, 654 nM

These binders were tested against T1, PSD-95 PDZ1-2 (assay: FP competition vs dimeric fluorescent probe, TBS + 1% HSA (apparent)).

Point of comparison: B2, Ki 1390 nM. Against it:
- IETAV (also: dimer: two peptides joined by a linker, no fatty acid, also called dimeric ligand UCCB01-125) [UCCB01-125] — 140-fold lower, 9.7 nM
- B7 — 75-fold lower, 18.5 nM
- B8 — 53-fold lower, 26.4 nM
- B1 — 2.1-fold higher, 2930 nM
- B3 — within 1.5-fold, 1890 nM
- B9 — 58-fold lower, 24 nM
- B4 — 2.6-fold higher, 3590 nM
- B10 — 51-fold lower, 27.2 nM
- B5 — within 1.5-fold, 1890 nM
- B6 — 4.1-fold higher, 5720 nM
- B11 — 100-fold lower, 13.4 nM
- B12 — 50-fold lower, 27.9 nM

Target: T1, PSD-95 PDZ1-2
Experiment: as above
Remark: another data set of the same source
Method: as §1

Point of comparison: B6, Ki 5720 nM. Against it:
- B2 — 4.1-fold lower, 1390 nM
- B3 — 3-fold lower, 1890 nM

These binders were tested against T2, Human Serum Albumin (assay: Transil XL HSA binding kit (immobilized HSA), unbound compound by RP-HPLC).
Method: as §2

Point of comparison: B4, Kd 34300 nM. Against it:
- IETAV (also: dimer: two peptides joined by a linker, no fatty acid, also called dimeric ligand UCCB01-125) [UCCB01-125] — 4.5-fold higher, 154000 nM
- B7 — 7-fold higher, 240000 nM
- B8 — 1.9-fold higher, 64600 nM
- B1 — within 1.5-fold, 23500 nM
- B2 — 5-fold lower, 6800 nM
- B3 — 7.1-fold lower, 4800 nM
- B9 — within 1.5-fold, 25800 nM
- B10 — within 1.5-fold, 26600 nM
- B5 — 2.7-fold lower, 12700 nM
- B6 — 1.8-fold lower, 19400 nM
- B11 — 1.6-fold higher, 55700 nM
- B12 — within 1.5-fold, 49300 nM

Target: T2, Human Serum Albumin
Experiment: as above
Remark: another data set of the same source
Method: as §2

Point of comparison: B2, Kd 6800 nM. Against it:
- B3 — within 1.5-fold, 4800 nM
- B13 — 12-fold higher, 83000 nM
- B6 — 2.9-fold higher, 19400 nM
